Molecular target: Trypanosoma brucei ADAT3 (Trypanosoma brucei)
Test: cryo-EM structure; TbADAT2/3 heterodimer co-expressed in Hi5 cells, purified via the His tag on TbADAT3 (1 M KCl wash), tag cleaved, SEC; mixed with in vitro transcribed TbtRNA-Thr(CGU) in 20 mM Hepes pH 7.5, 50 mM NaCl, 2 mM MgCl2, 0.5 mM TCEP, SEC, vitrified

Trypanosoma brucei ADAT2 (A87G/C117S) (enzyme)
stoichiometry N: 1

From paper PMC9643335
